# Assay results published in patent US11466066B2, “Variants of human BMP7 protein” (ELI LILLY AND COMPANY, priority 2017, dated 2022).
# T1: Coco (Homo sapiens, UniProt Q8N907)
# T1 construct: purchased R&D Systems
# T1 sequence (Q8N907 23-189): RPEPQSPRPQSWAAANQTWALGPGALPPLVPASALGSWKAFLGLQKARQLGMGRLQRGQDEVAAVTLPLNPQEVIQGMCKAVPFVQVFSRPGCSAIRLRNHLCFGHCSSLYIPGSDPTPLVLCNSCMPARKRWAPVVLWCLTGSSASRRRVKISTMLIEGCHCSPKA
# T2: Noggin (Homo sapiens, UniProt Q13253)
# T2 construct: purchased R&D Systems
# T2 sequence (Q13253 28-232): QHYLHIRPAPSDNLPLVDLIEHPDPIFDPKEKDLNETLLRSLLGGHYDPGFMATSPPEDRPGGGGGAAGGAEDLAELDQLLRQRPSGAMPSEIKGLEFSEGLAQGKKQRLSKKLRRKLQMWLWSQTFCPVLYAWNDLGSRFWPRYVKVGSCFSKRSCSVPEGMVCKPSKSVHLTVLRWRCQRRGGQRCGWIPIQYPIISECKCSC
# T3: Chordin-like 2 (Homo sapiens, UniProt Q6WN34)
# T3 construct: purchased R&D Systems
# T3 sequence (Q6WN34 26-429): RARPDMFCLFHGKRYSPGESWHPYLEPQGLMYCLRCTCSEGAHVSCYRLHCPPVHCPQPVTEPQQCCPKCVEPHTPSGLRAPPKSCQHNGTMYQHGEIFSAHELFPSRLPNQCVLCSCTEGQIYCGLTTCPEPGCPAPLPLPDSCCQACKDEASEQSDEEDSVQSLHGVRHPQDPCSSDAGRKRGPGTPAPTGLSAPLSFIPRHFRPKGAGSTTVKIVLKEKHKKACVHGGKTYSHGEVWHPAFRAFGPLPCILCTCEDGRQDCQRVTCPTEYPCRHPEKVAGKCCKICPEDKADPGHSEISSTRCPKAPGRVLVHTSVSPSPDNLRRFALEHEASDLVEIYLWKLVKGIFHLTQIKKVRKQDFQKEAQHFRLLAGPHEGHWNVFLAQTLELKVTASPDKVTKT
# Columns and labels:
# [1] = tested on: Chordin; test: BMP inhibitor activity, hepcidin promoter luciferase: Chordin; type: cell-based
# Experimental: (§1) Briefly described, Hep3B2 cells stably transfected with a hepcidin promoter luciferase construct (hereinafter, referred to as Hep3B2_HepPro_luc cells) were used for BMP inhibitor experiments. Hep3B2_HepPro_luc cells may be plated at 30,000 cells per well in a tissue culture treated 96 well plate in DMEM (Hyclone) 5% FBS (Gibco) supplemented with non-essential amino acids (Hyclone) and 200 μg/ml gentecin (Hyclone) for 24 hours. Cells were then starved in OMEM+0.2% BSA for 5 hours. Cells were treated with a mixture of human BMP7 proteins and variants thereof in OMEM (Gibco)+0.2% BSA (Gibco) for 18 hours then developed for luciferase activity utilizing Luciferase reporter Gene Assay Kit (Roche). BMP7 proteins were added at concentrations in the linear range of the assay, at 1 nM and 100 pM. Inhibitors were added at various concentrations in molar excess of the particular BMP7 protein being tested. All BMP inhibitors except Follistatin were purchased from R&D Systems. Follistatin and BMP7 proteins and variants thereof were generated at Eli Lilly and Company.
# [2] = biological target: T1, Coco; test: BMP inhibitor activity, hepcidin promoter luciferase: Coco; type: cell-based
# Experimental: as §1
# [3] = biological target: T2, Noggin; test: BMP inhibitor activity, hepcidin promoter luciferase: Noggin; type: cell-based
# Experimental: as §1
# [4] = Stir-induced aggregation (solubility) assay; type: physicochemical; conditions: 40 μg/mL, pH 7.4, stirred 400 rpm
# Experimental: Solubility/physical stability of human BMP7 protein and human BMP7 protein variants may be measured in a stir-induced aggregation assay. Proteins are diluted to 40 μg/mL with assay buffer (50 mM sodium phosphate, 150 mM NaCl, pH 7.4) to a total volume of 2 mL. This solution may be put in a 7 mL glass vial containing one ‘flea’ stir bar and stirred at 400-rpm at room temperature. At periodic intervals (typically 0, 30, 60, 90, 120, and 150 minutes) a 150 μL aliquot may be withdrawn and centrifuged for 2 minutes at 16,000×g in a 1.5 mL tube. The supernatant (120 μL) may be transferred to an HPLC vial and the amount of remaining protein may be determined by reversed-phase HPLC under the following conditions: Zorbax C8 SB-300® column (3.5 micron, 4.6×50 mm), mobile phase: A buffer=0.1% TFA (v/v) in water, B buffer=0.085% TFA (v/v) in acetonitrile; flow rate at 1 mL/minute; column heated to 60° C.; autosampler cooled to 10° C., 214 nm UV detection, 80 μL injection, and 20 minute run time using the linear gradient indicated below. From the HPLC chromatograms (not shown) the protein peak or peaks (e.g., mature and pro domains) are integrated and percent change from initial peak area may be calculated.
# [5] = biological target: T4, Follistatin (Homo sapiens, UniProt P19883); test: BMP inhibitor activity, hepcidin promoter luciferase: Follistatin; type: cell-based
# T4 construct: made in house
# Experimental: as §1
# [6] = biological target: T3, Chordin-like 2; test: BMP inhibitor activity, hepcidin promoter luciferase: Chordin-like 2; type: cell-based
# Experimental: as §1
# [7] = tested on: female CB17SC-M SCID mice; test: Ectopic bone formation model; type: in vivo; conditions: 3 μg/100 μl subcutaneous; CT scan on Day 13
# Experimental: Ectopic bone formation (EBF) may be measured in female CB17SC-M SCID mice upon subcutaneous administration of certain human BMP7 protein variants of the present invention compared to wild type human mature BMP7.
# Briefly described, the mice may be anesthetized with 3% isoflurane and are injected with 3 μg/100 μl of the human BMP7 protein variant, wild type human mature BMP7 protein or a vehicle control on the back left flank. The back right flank of each mouse may serve as a control (no injection). Vehicle (pH 4.5): 0.5% Sucrose, 2.5% Glycine, 5 mM L-Glutamic Acid, 5 mM NaCl, 0.01% polysorbate 80, and, 0.1% BSA.
# EBF may be measured by a CT scan on Day 13 after injection of the human BMP7 protein variant or wild type human mature BMP7 protein.
# [8] = molar excess 100X, Hep3B2_HepPro_luc cells, 18 hours
# [9] = Chordin-like 2, molar excess 0.1X
# [10] = Chordin-like 2, molar excess 1X
# [11] = Chordin-like 2, molar excess 10X
# [12] = Chordin-like 2, molar excess 100X, Hep3B2_HepPro_luc cells, 18 hours
# T4 sequence (P19883 30-344, species assumed): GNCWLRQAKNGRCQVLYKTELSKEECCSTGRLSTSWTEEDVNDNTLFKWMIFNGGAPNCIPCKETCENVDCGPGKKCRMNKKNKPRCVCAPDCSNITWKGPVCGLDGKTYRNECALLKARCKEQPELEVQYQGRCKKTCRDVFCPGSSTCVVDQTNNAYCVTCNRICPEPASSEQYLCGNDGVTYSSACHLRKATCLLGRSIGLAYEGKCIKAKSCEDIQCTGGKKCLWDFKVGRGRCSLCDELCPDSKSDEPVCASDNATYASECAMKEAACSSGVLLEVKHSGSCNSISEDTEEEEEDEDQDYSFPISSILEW
Molecule,% inhibition ([1]; molar excess 0.1X) [%],% inhibition ([1]; molar excess 1X) [%],% inhibition ([1]; molar excess 10X) [%],% inhibition ([2]; molar excess 0.1X) [%],% inhibition ([2]; molar excess 1X) [%],% inhibition ([2]; molar excess 10X) [%],% inhibition ([3]; molar excess 0.1X) [%],% inhibition ([3]; molar excess 1X) [%],% inhibition ([3]; molar excess 10X) [%],Percent of Material Precipitated ([4]; 0 minutes) [%],Percent of Material Precipitated ([4]; 30 minutes) [%],Percent of Material Precipitated ([4]; 60 minutes) [%],Percent of Material Precipitated ([4]; 90 minutes) [%],Percent of Material Precipitated ([4]; 120 minutes) [%],Percent of Material Precipitated ([4]; 150 minutes) [%],% inhibition ([5]; molar excess 0.1X) [%],% inhibition ([5]; molar excess 1X) [%],% inhibition ([5]; molar excess 10X) [%],"% inhibition [6, 9] [%]","% inhibition [6, 10] [%]",other results
Wild type human pro-BMP7: homodimers of wild type human mature BMP7 in a non-covalent complex with wild type human pro-domain [reference compound],−15.1,−2.2,18.9,−10.2,4.0,17.4,−5.3,24.8,84.8,0,8,42,51,65,72,−10.4,5.9,29.5,8.9,55.9,"% inhibition [1, 8]: 76.5%; % inhibition [2, 8]: 81.6%; % inhibition [3, 8]: 87.3%; % inhibition [5, 8]: 79.8%; % inhibition [6, 11]: 87.5%; % inhibition [6, 12]: 88.2%"
"Human mature BMP7 protein variant F9 (SEQ ID NO: 8): homodimer wherein each monomeric subunit has SEQ ID NO: 8 (Y65G/I86L/F93V/N110G/Y128W), disulfide linked (protein, homodimer, disulfide linked) STGSKQRSQNRSKTPKNQEALRMANVAENSSSDQRQACKKHELYVSFRDLGWQDWIIAPEGYAAGYCEGECAFPLNSYMNATNHALVQTLVHVINPETVPKPCCAPTQLGAISVLYFDDSSNVILKKWRNMVVRACGCH",6.8,5.2,5.6,7.0,7.3,28.5,−7.2,−6.9,−1.2,0,7,23,24,37,39,10.6,10.0,23.8,−3.2,−1.0,"% inhibition ([1]; molar excess 0.01X): 3.7%; Ectopic Bone Formation Volume [7]: 7 mm^3; % inhibition ([2]; molar excess 0.01X): 2.3%; % inhibition ([3]; molar excess 0.01X): −2.6%; % inhibition ([5]; molar excess 0.01X): 3.9%; % inhibition ([6]; Chordin-like 2, molar excess 0.01X): −1.5%; % inhibition [6, 11]: 9.0%"
"Wild type human mature BMP7 (SEQ ID NO: 2): dimer of two glycosylated, 139 amino acid disulfide-linked proteins of about 35 kDa, SEQ ID NO: 2 (protein, listed as Homo sapiens, disulfide-linked glycosylated homodimer) STGSKQRSQNRSKTPKNQEALRMANVAENSSSDQRQACKKHELYVSFRDLGWQDWIIAPEGYAAYYCEGECAFPLNSYMNATNHAIVQTLVHFINPETVPKPCCAPTQLNAISVLYFDDSSNVILKKYRNMVVRACGCH",−13.1,−9.2,21.3,−23.6,−25.9,37.6,−12.2,36.7,72.8,100,100,100,100,100,100,−16.6,−11.9,21.1,−13.7,49.0,"% inhibition [1, 8]: 70.9%; Ectopic Bone Formation Volume [7]: 78 mm^3; % inhibition [2, 8]: 77.4%; % inhibition [3, 8]: 73.7%; % inhibition [5, 8]: 54.7%; % inhibition [6, 11]: 69.5%; % inhibition [6, 12]: 71.9%"
